{"source": "paper PMC5161705", "about": "(Nature, 2016)", "binders": {"B1": {"name": "MBP^97–164 (domain or fragment)", "chain": "not shown"}, "B2": {"name": "SecB (natural protein)", "chain": "MSEQNNTEMTFQIQRIYTKDISFEAPNAPHVFQKDWQPEVKLDLDTASSQLADDVYEVVLRVTVTASLGEETAFLCEVQQGGIFSIAGIEGTQMAHCLGAYCPNILFPYARECITSMVSRGTFPQLNLAPVNFDALFMNYLQQQAGEGTEEHQDA"}, "B3": {"name": "MBP^331–396 (domain or fragment)", "chain": "not shown"}, "B4": {"name": "MBP^67–99 (domain or fragment)", "chain": "not shown"}, "B5": {"name": "triple mutant SecB (SecB™), V40A/L42A/L44A (natural protein)", "chain": "MSEQNNTEMTFQIQRIYTKDISFEAPNAPHVFQKDWQPEAKADADTASSQLADDVYEVVLRVTVTASLGEETAFLCEVQQGGIFSIAGIEGTQMAHCLGAYCPNILFPYARECITSMVSRGTFPQLNLAPVNFDALFMNYLQQQAGEGTEEHQ"}, "B6": {"name": "MBP^29–99 (domain or fragment)", "chain": "not shown"}, "B7": {"name": "MBP^260–336 (domain or fragment)", "chain": "not shown"}, "B8": {"name": "MBP^160–201 (domain or fragment)", "chain": "not shown"}, "B9": {"name": "MBP^198–265 (domain or fragment)", "chain": "not shown"}}, "key": {"[1]": {"biological_target": "B2", "test": "NMR titration"}, "[2]": {"biological_target": "the molecule itself", "test": "NMR structure"}, "[3]": {"biological_target": "T1, alkaline phosphatase (PhoA) (E. coli, UniProt P00634 1-471 = phosphatase)", "test": "SEC-MALS"}, "[4]": {"biological_target": "maltose binding protein (MBP), MBP^1–396 (E. coli, UniProt P0AEX9 1-396 = MBP)", "test": "SEC-MALS"}, "[5]": {"biological_target": "T1, alkaline phosphatase (PhoA)", "test": "ITC"}}, "data": [{"binder": "B1", "values": [{"measurement": "binding result", "setting": "[1]", "result": "binds"}]}, {"binder": "B2", "values": [{"measurement": "binding result", "setting": "[2]", "result": "binds"}, {"measurement": "stoichiometry N", "setting": "[3]", "result": "1 SecB:PhoA"}, {"measurement": "stoichiometry N", "setting": "[4]", "result": "1 SecB:MBP"}]}, {"binder": "B3", "values": [{"measurement": "binding result", "setting": "[1]", "result": "binds"}]}, {"binder": "B4", "values": [{"measurement": "binding result", "setting": "[1]", "result": "binds"}]}, {"binder": "B5", "values": [{"measurement": "fold reduction in affinity against wild type SecB", "setting": "[5]", "result": 40, "unit": "fold"}]}, {"binder": "B6", "values": [{"measurement": "binding result", "setting": "[1]", "result": "binds"}]}, {"binder": "B7", "values": [{"measurement": "binding result", "setting": "[1]", "result": "binds"}]}, {"binder": "B8", "values": [{"measurement": "binding result", "setting": "[1]", "result": "binds"}]}, {"binder": "B9", "values": [{"measurement": "binding result", "setting": "[1]", "result": "binds"}]}]}
